Numbering of substitutions follows the chain as printed.

The first data set has as its target T1, OmpR-His6 (Yersinia enterocolitica Ye9) (UniProt P74982).
T1 sequence: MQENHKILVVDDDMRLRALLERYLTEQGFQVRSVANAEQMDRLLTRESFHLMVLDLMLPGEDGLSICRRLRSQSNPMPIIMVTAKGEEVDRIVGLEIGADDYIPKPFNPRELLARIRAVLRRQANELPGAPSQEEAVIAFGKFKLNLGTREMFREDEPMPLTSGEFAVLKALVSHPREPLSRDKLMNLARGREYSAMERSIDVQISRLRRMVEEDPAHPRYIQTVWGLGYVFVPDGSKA
Briefly: EMSA. Particulars: 50 mM Tris-HCl pH 8.0, 100 mM KCl, 1 mM EDTA, 1 mM DTT, 20 mM MgCl2, 12% glycerol, 100 ug/mL BSA, 0.1% Triton X-100; 22 C, 15 min; 0.05 or 0.3 pmol DNA in …. Background: Mobility shift assays separate free from complexed probe on a gel.
Take “CAATCTATTCACGGGGCAACAAAAACGAACAAGATTGATAATTATTTTCATTATCAATTCATCCGGCTAATTGTTACATTTGCAATCAGAAAAAAGGTTTGTGTAAACAGCAAAACTCTTTGCTATAAAGTCAATGTTGTTACTACATCAATACCAGTGAAGGAGTCATTATGCCCGCGGTGAAGAAAAATAAGTTGCGCAATATTTCCCCATCATCCAAACCGATTTATCGCGACCAAATTATGCA (double strand) [PfepA]”: the binding entry is listed as “binds”.
Still for that read-out and setting: the entry for “CCCCCTTATTCCAAATGGTTTTTATTTCTCCTTTCTGTTTTTGCAGCAAGAAATAATTCGTCTGTTTGCGACAAAATTGATTTACTTGGGAAATGTAATCATTAAGATTAGCGTTTCTAAAAAATTACAATCAGACACAATTCCTTTCGCAATAGGCCCAAAATGTTAACGTTTTCCCGTTTGTCTCTG (double strand) [PfecA]” is “binds”.
On the same count and under the same terms, to “GGTGGTAAAACAAGCGCAAATAGAAATCAGACTCATTAATTTTAAAAATGAAATCGTAATGAATATTTACTTTTGAGTCTTTAACCTGAGTTGAATATGAAAACGATTCTTACTATTATTATTTTAATCATTATTCATTAGTGGTGGAATTTCTCTGAACTCTGGTTTGCTAATGCGTTATAACGAGAGGCTTACATGCATCTGATCCCACAGCGCTCCTACAAAAT (double strand) [PfeoA]” belongs “binds more weakly”.

The target in the next data set is T2, OmpR-His6 (Yersinia enterocolitica Ye9) (UniProt P74982).
T2 sequence: T1 sequence with A136T
Description: EMSA. Particulars: 50 mM Tris-HCl pH 8.0, 100 mM KCl, 1 mM EDTA, 1 mM DTT, 20 mM MgCl2, 12% glycerol, 100 ug/mL BSA, 0.1% Triton X-100; 22 C, 15 min; 0.05 or 0.3 pmol DNA in ….
With “CAATACATTGCATGATTAATCGGGCAAAGTGTGCAATTATATCTTTGTTAACAACCACGGTTTTCATTTGGGGCTAGCAGTTCTATAATGAGACGCAATTGAGAATATTGCGCCACGGATGTCATAGGCTGAACAGCCTTAATTTGAATCGATAGTAACAGGACTGAATCCGCATG (double strand) [F4]”, the binding result is reported as “binds more weakly”.
The same measure, in the same setting: to “CGTTGCTTCTATCCCTCTGGTTATACTCTGTTAAGCCACCCACAGATCCGCACTTTCATCCGTGCAAAATGAAAATAAACTGCTACAAATTTGTAACCTTATACTTTGCAGTCAT (double strand) [F2]” belongs “binds”.
On to “CGTTGCTTCTATCCCTCTGGTTATACTCTGTTAAGCCACCCACAGATCCGCACTTTCATCCGTGCAAAATGAAAATAAACTGCTACAAATTTGTAACCTTATACTTTGCAGTCATATACTTAAATTATGCAACAATCCCATTCATCAATACATTGCATGATTAATCGGGCAAAGTGTGCAATTATATCTTTGTTAACAACCACGGTTTTCATTTGGGGCTAGCAGTTCTATAATGAGACGCAA (double strand) [F23]”, for which the binding entry is listed as “binds”.
Turning to “GCAGTCATATACTTAAATTATGCAACAATCCCATTCATCAATACATTGCATGATTAATCGGGCAAAGTGTGCAATTATATCTTTGTTAACAACCACGGTTTTCATTTGGGGCTAGCAGTTCTATAATGAGACGCAA (double strand) [F3]”, the binding result is given as “binds”.
“GCAGTCATATACTTAAATTATGCAACAATCCCATTCATCAATACATTGCATGATTAATCGGGCAAAGTGTGCAATTATATCTTTGTTAACAACCACGGTTTTCATTTGGGGCTAGCAGTTCTATAATGAGACGCAATTGAGAATATTGCGCCACGGATGTCATAGGCTGAACAGCCTTAATTTGAATCGATAGTAACAGGACTGAATCCGCATG (double strand) [F34]”: the binding result is on record as “binds”.
Same read-out and setting: the entry for “GCATGATTAATCGGGCAAAGTGTGCAATTATATCTTTGTTAACAACCACGGTTTTCATTTGGGGCTAGCAGTTCTATAATGAGACGCAATTGAGAATATTGCGCCACGGATGTCATAGGCTGAACAGCC (double strand) [F0]” is “no binding”; for “TCATTTTGCACGGATGAAAGTGCGGATCTGTGGGTGGCTTAACAGAGTATAACCAGAGGGATAGAAGCAACGGAAACGCGTGGCAATATTAAATTTCATCCTCGCGTTTCCGACATGACAAATTAACCGGTAATTTCGGCCAGATTCAGTTCT (double strand) [F1]” it is “binds more weakly”; for “TGACAAATGAGCGCGTTGAAGCTTGGGTAAAACAGATCAGCGAAGAACTGAATCTGGCCGAAATTACCGGTTAATTTGTCATGTCGGAAACGCGAGGATGAAATTTAATATTGCCACGCGTTTCCGTTGCTTCTATCCCTCTGGTTATACTCTGTTAAGCCACCCACAGATCCGCACTTTCATCCGTGCAAAATGAAAATAAACTGCTACAAATTTGTAACCTTATACTTTGCAGTCAT (double strand) [F12]” it is “binds”.

The record behind these values is article PMC7867234.
